{"source": "the nanobody polyreactivity screen of Harvey et al. (2022)", "data": [{"test": "yeast display, Sf9 membrane polyspecificity reagent, FACS + sequencing; frameworks hold sequencing errors", "summary_of_the_method": "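In a synthetic yeast display library (Saccharomyces cerevisiae BJ5465), nanobody expression was induced with galactose for 36–48 hours. FACS gates were set low and high (top ~1%) using anti-HA fluorescence for expression and streptavidin fluorescence for binding of the Sf9 membrane reagent. Each polyreactivity label is drawn from the gate of origin.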", "values": [{"sequence": "QVQLVESGGGLVQAGGSLRLSCPASGSIFYENAMGWYRQAPGKARELVAAISRSGGSTYYADSVKGRFTISRDNAKNTVYLQMNSLKPEDTAVYYCNTEGGVIRRYWYDYWGQGTQVTVSS", "polyreactivity (PSR sort gate)": "low polyreactivity"}, {"sequence": "QVQLVESGGGLVQAGGSLRLSCPASGSTFWYYDMGWSRQAPGKERELVAAISGSGGRTYYADSVKGRFTISRDNAKNTVYLQMNSLKPEDTAVYYCAADYYWSADFKYNDWGQGTQVTVAS", "polyreactivity (PSR sort gate)": "low polyreactivity"}, {"sequence": "QVQLVESGGGLVQAGGSLRLSCPASGYTFYVYAMGWYRQAPGKERELVAAIGGGSTNYADSVKGRFTISRDNAKNTVYLQMNSLKPEDTAVYYCAARRYYKFYYWGQGTQVTVSS", "polyreactivity (PSR sort gate)": "high polyreactivity"}, {"sequence": "QVQLVESGGGLVQAGGSLRLSCPDSGFIFYLYDMGWYRQAPGKEREVVAAITDRGGSTYYADSVKGRFTITRDNAKITVYLQLKSLKPEDTAVYSCAAASSAIDSSVTMDYWGQGTQVTVSS", "polyreactivity (PSR sort gate)": "low polyreactivity"}, {"sequence": "QVQLVESGGGLVQAGGSLRLSCSASGGTFITNAMGWYRQAPGKERELVAAITSGGRTTYADSVKGRFTISRDNAKNTVYLQMNSLKPEDTAVYYCAADHVYSYTYNFDYWGQGTQVTVSS", "polyreactivity (PSR sort gate)": "low polyreactivity"}, {"sequence": "QVQLVESGGGLVQAGGSLRLSCSASGITFEGYAMGGYRQAPGKERELVAAIRSSGTSRYYADSVKGRFTISRDNAKNTVYLQMNSQKPEDTAVYYCNRARSSSRYDYWGQGTQVTVSS", "polyreactivity (PSR sort gate)": "low polyreactivity"}, {"sequence": "QVQLVESGGGLVQAGGSLRLSCSASGITFTGYGMGWYRQAPGKERELVAAIRLRTGSTYYADSVKGRFTISRDNAKNTVYLQMNSLKPEDTAVYYCAKKWSSKYWGQGTQVTVSS", "polyreactivity (PSR sort gate)": "high polyreactivity"}, {"sequence": "QVQLVESGGGLVQAGGSLRLSCSASGLIFWAYAMGWYRQAPGKERELVAAINWRGGSTYYADSVKGRFTISRDNAKNTVYLQMNSLKPEDTAVYYCNTDFQLGEGGSYGYDYWGQGTQVTVSS", "polyreactivity (PSR sort gate)": "low polyreactivity"}, {"sequence": "QVQLVESGGGLVQAGGSLRLSCSASGLTFGNNAMGWYRQAPGKETELVAAISSDGTTYYADSVKGRFTISRDHAKNTVYLQMNSLKPEDSAVYYCAALYGPGREYDYWGQGTQVTVSS", "polyreactivity (PSR sort gate)": "low polyreactivity"}, {"sequence": "QVQLVESGGGLVQAGGSLRLSCSASGRIFDTYAMGWYRQAPGKERELVAAIRRTGGSTYYADSVKGRFTISRDNAKNTVYLQMNSLKPEDTAVYYCAAEYTVSYLRMDYWGQGTQVTVSS", "polyreactivity (PSR sort gate)": "low polyreactivity"}, {"sequence": "QVQLVESGGGLVQAGGSLRLSCSASGRILVLNAMGWYRQAPGTERELVADITSGGSTYYADSVKGRFTISRDNAKNTVYLQMNSLKPEDTAVYYCAADWNTYPDYQQSYFVSYEYNYWGQGTQVTVSS", "polyreactivity (PSR sort gate)": "low polyreactivity"}, {"sequence": "QVQLVESGGGLVQAGGSLRLSCSASGRISVFNVMGWYRQAPGKERELVAAITSGGSTIYADSVKGRFTISRDNAKNTVYLQMNSLKPEDTAVYYCAALYQFHGKIWDGDYWGQGTQVTVSS", "polyreactivity (PSR sort gate)": "low polyreactivity"}, {"sequence": "QVQLVESGGGLVQAGGSLRLSCSASGRTFSWYAMGWYRKAPGKERELVAAISYSGGSTYYADSVKGRFTISRDNAKNTVYLQMNSLKPEDTAVYYCARTRRHSQNFDYWGQGTQVIVSS", "polyreactivity (PSR sort gate)": "high polyreactivity"}, {"sequence": "QVQLVESGGGLVQAGGSLRLSCSASGRTLGRNAMGWYRPAPGKERELVAAISWGGGDTSYADSVKGRFTISRDNAKNTVYLQMNSLKPEDTAVYYCNRYYTPYRRWGYDYWGQGTQVTVSS", "polyreactivity (PSR sort gate)": "high polyreactivity"}, {"sequence": "QVQLVESGGGLVQAGGSLRLSCSASGRTSQWNAMGWYRQAPGKERELVAAISWRTGGTYYADSVKGRFTISRDKAKNTVYLQMNSLQPEDTAVYYCAAGYIGGRPQYWRIGGYWGQGTQVTVSS", "polyreactivity (PSR sort gate)": "high polyreactivity"}, {"sequence": "QVQLVESGGGLVQAGGSLRLSCSASGSIFGGYAMGWYRQAPGKEREFVAAISRRGASTYYADSVKGRYTISRDNAKNTVYLQMNSLKPEDTAVYYCNARAYGRIDGLSATYGYWGQGTQVTVSS", "polyreactivity (PSR sort gate)": "high polyreactivity"}, {"sequence": "QVQLVESGGGLVQAGGSLRLSCSASGSIFKIYAMGWYRQAPGKERELVASITGSGGSTYYADSVKGRFTISRDNAKNTVYLQMNSLKPEDTAVYYCAAAVLGSSKSEVDPDRPEYYYWGQGTQVTVSS", "polyreactivity (PSR sort gate)": "low polyreactivity"}, {"sequence": "QVQLVESGGGLVQAGGSLRLSCSASGSIFRVYGMGWYRQAPGKERELVAAITWSGGSTYYADSVKGRFTISRDNAQNTVYLQMNSLKPEDTAVYYCAARARPRYYRQPYDYLGQGTQVTVSS", "polyreactivity (PSR sort gate)": "high polyreactivity"}, {"sequence": "QVQLVESGGGLVQAGGSLRLSCSASGSIFSNAMGWYRQAPGKERELVAAITGRGGRTYYADSVKGRFTITRDNAKNSVYLQMNSLKPEDTAVYYCARDSPWSSRYRYRAFDYWGQGTQVTVSS", "polyreactivity (PSR sort gate)": "high polyreactivity"}, {"sequence": "QVQLVESGGGLVQAGGSLRLSCSASGSNFYTNAMGWYRQAPGKERELVAVITASGGSTYYADSVKGRFTISRDYAKNTVYLLMNSLKPEDTAVYYCASDPVFNYDYWGQGTQVTVSS", "polyreactivity (PSR sort gate)": "low polyreactivity"}, {"sequence": "QVQLVESGGGLVQAGGSLRLSCSASGSTFAYYTMGWYRQAPGKERELVAAISRSGGSTYYSDSVKGRFTISRDNAKNTVYLQMNSLKPEDTAVYYCAADKHYAVIPYEYWGQVTQVTVSS", "polyreactivity (PSR sort gate)": "high polyreactivity"}, {"sequence": "QVQLVESGGGLVQAGGSLRLSCSASGSTFDTYAMGWYRKAPGKERELVAAISRSGGSTYYADSVKWRFTISRDNAKNTVYLQMNSLKPEDTAVYFCNALSGDLAGDYWGQGTQVTVSS", "polyreactivity (PSR sort gate)": "high polyreactivity"}, {"sequence": "QVQLVESGGGLVQAGGSLRLSCSASGSTFERYAMGWYRQAPGKERELVAAISAIGDSTYYADSVKGRFTISRDNANNTVYLQMNSLKPEDTAVYYCAAKTSDYGYYYWGQGTQVTVSS", "polyreactivity (PSR sort gate)": "high polyreactivity"}, {"sequence": "QVQLVESGGGLVQAGGSLRLSCSASGSTFKYNAKGWYIQETGKEWELVAYITRGGHTNYAVSVKGRFTISRDNAKNTVYLQMNRLKPEDTAVYYCAAVRPSVGFRGAWYPQYDYWGQGTQVTVSS", "polyreactivity (PSR sort gate)": "low polyreactivity"}, {"sequence": "QVQLVESGGGLVQAGGSLRLSCSASGSTFSDNVMGWYRQAPGKERELVAGITRSGGRTYYADSVKGRFTISRDNAKNTVYLQMNSLKPEDTAVYYCAAASSGEYGYWGQGTQVTVSS", "polyreactivity (PSR sort gate)": "low polyreactivity"}, {"sequence": "QVQLVESGGGLVQAGGSLRLSCSASGSTFVVYAMGWSRQAPGKERELVAAISESGSSTYYADSVKGRFTISRDNAKNTVYLQMNSLKPEDTAVYYCNALYYDWHPEYQVIFSDFYYWGQGTQVTVSS", "polyreactivity (PSR sort gate)": "low polyreactivity"}, {"sequence": "QVQLVESGGGLVQAGGSLRLSCSASGSTFWYYAMGWYRKAPGKERELVAAITRGASTNYADSVKGRFTISRDNAKNTVYLQMISLIPEDTAVYYCAAGPARWKGYYWGQGTQVTVSS", "polyreactivity (PSR sort gate)": "high polyreactivity"}, {"sequence": "QVQLVESGGGLVQAGGSLRLSCSASGSTFYLYAMGWYRQAPGKEREFVADISLSGDSTYYADSVKGRFTISRDNAKNTVYLQMNSLKPEDTAVYYCAADVFYPGPWSYEYWGQGTQVTVSS", "polyreactivity (PSR sort gate)": "low polyreactivity"}, {"sequence": "QVQLVESGGGLVQAGGSLRLSCSASGYIFGRNSMGWYRTAHGKERELVAVISSRGSRTYYADSVKGRFTISRDNAKNTVYLQMNSLKPEDTAVYYCNAVLWWDWVYDFYYWGQGNQVTVSS", "polyreactivity (PSR sort gate)": "high polyreactivity"}, {"sequence": "QVQLVESGGGLVQAGGSLRLSCSASGYIYQYNSMGWYRQAPGKERELVAANSRGGRTNYADSVKGRFTISRDNAKNTVYLQMNSLKPEDTEVYYCAAKRPWGYYPWSTQTGDYWGQGTQVTVSS", "polyreactivity (PSR sort gate)": "high polyreactivity"}, {"sequence": "QVQLVESGGGLVQAGGSLRLSCSASRSTFYGNAMGWYRQAPGKERELVAAISSGDITYYADSVKGRFTISRDNAKNTVYLQMNSLKPEDTAVYYCATDYGYSWYDYWGQGTQVTVSS", "polyreactivity (PSR sort gate)": "low polyreactivity"}, {"sequence": "QVQLVESGGGLVQAGGSLRLSCSAYGSIFYGYAMGWYRQAPGKERELVAAITWSGGSTYYADSVKGRFTISRDIAKNTVYLQMNSLKPEDTAVYYCNALWVWYRGSSVRWVGGYDYWGQGTQVTVSS", "polyreactivity (PSR sort gate)": "high polyreactivity"}, {"sequence": "QVQLVESGGGLVQAGGSLRLSCSDSGRTFGGNAMGRYRQAPGKERELVAAISRSGGTTYYADSVKGRFTISRDNAKNTVYLQMNSLKPEDTAVYYCNTRRYGAMYYWGQGTQVTVSS", "polyreactivity (PSR sort gate)": "high polyreactivity"}, {"sequence": "QVQLVESGGGLVQAGGSLRLSCTASGSIFTRNTMGSYRQAPGKERELVAAISRRGGSTDYADSVKGRFTISRDNAKNTVYLQMNSLKPEDTAVYYCAADLGYEYDYWGQGTQVTVSS", "polyreactivity (PSR sort gate)": "high polyreactivity"}, {"sequence": "QVQLVESGGGLVQAGGSLRLSCVASARTFFRYAMGWYRQAPGKERELVADITRGGSTYYADSVKGRFTISRDNAKNTVYLQMNSLKPEDTAVYYCNADGRVQRKYDYWGQGTQVTVSS", "polyreactivity (PSR sort gate)": "high polyreactivity"}, {"sequence": "QVQLVESGGGLVQAGGSLRLSCVASGGIFFHYAMRWYRHARGKERELVAAISISGGSTYSADSVKGRFTISRDNAKNTVYLQMNSLKPEDTAVYYCAARYWVRRKDYWGQGTQVTVSS", "polyreactivity (PSR sort gate)": "low polyreactivity"}, {"sequence": "QVQLVESGGGLVQAGGSLRLSCVASGRIIPCNAMGWYRQAPGKERELVAAISYGGGSTYYADSVKGRFTISRDNAKNTVYLQMNSLKPADTAVYYCAAASSGEYGYWGQGTQVTVSS", "polyreactivity (PSR sort gate)": "low polyreactivity"}, {"sequence": "QVQLVESGGGLVQAGGSLRLSCVPPDLPSTLNVMGWYRQAPGKERELVAAISQRGGSTYYADSVKGRFTISRDNAKNTVYLEMNSLKPEDTAVYYCAAGPGDSGDDYWGQGTQVTVSS", "polyreactivity (PSR sort gate)": "low polyreactivity"}, {"sequence": "QVQLVESGGGLVQAGGSLRLSCYASGGTFRWYAMGWSRQAPGKERELVAAISYSGGPTYADSVKGRFTISRDNAKNTVYLQMNSLKPEDTAVYYCNAVRYITHYDYWGQGTQVTVSS", "polyreactivity (PSR sort gate)": "high polyreactivity"}, {"sequence": "QVQLVESGGGLVQAGGSLRLSCYASGRTFAGYVMGWYRQAHGKERELVAAINASGGSTYYADSVKGRFTISRDNAKNTVYLQMNSLKPEDTAVYYCAAARLGSDITRRYYYWGQGTQVTVSS", "polyreactivity (PSR sort gate)": "high polyreactivity"}, {"sequence": "QVQLVESGGGLVQAGGSLRLSFAASGFTFRYYVMGWYRQAPGKERELVASISRGGSTTNYADSVKGRFTISRDNAKNTVFLQMNSLKPEDTAVYDCNVVITPGYSYDISRGEGYWGQGTQVTVSS", "polyreactivity (PSR sort gate)": "high polyreactivity"}]}]}
